Experimental data taken from article PMC4330348, “Identification of protein complexes that bind to histone H3 combinatorial modifications using super-SILAC and weighted correlation network analysis” (Nucleic Acids Research, 2015).

Target: T1, histone H3 peptide aa1–20 trimethylated at K9 (H3K9me3) (UniProt P68431 2-21, trimethyl-lysine at K9; biotin attached to the C-terminus via a glycine-lysine linker)
T1 construct: histone H3 N-terminal tail, aa1–20; glycine-lysine linker (told in words), carries the biotin; also called H3K9me3 modified H3 1–20 peptide; source: synthetic peptide (GL biochem)
Experiment: affinity purification with mass spectrometry; biotinylated histone H3 peptides on NeutrAvidin beads; pooled nuclear and MNase-solubilised chromatin extracts of SILAC-labelled MPC11 cells adjusted to 150 mM NaCl, 4°C; washes with 150 mM KCl, 0.2% Triton X-100; heavy pulldowns against a mixed light reference (super-SILAC); beads alone as control; two replicates
Conditions: one partner purified

Chain of Ezh2 (Q61188 whole entry): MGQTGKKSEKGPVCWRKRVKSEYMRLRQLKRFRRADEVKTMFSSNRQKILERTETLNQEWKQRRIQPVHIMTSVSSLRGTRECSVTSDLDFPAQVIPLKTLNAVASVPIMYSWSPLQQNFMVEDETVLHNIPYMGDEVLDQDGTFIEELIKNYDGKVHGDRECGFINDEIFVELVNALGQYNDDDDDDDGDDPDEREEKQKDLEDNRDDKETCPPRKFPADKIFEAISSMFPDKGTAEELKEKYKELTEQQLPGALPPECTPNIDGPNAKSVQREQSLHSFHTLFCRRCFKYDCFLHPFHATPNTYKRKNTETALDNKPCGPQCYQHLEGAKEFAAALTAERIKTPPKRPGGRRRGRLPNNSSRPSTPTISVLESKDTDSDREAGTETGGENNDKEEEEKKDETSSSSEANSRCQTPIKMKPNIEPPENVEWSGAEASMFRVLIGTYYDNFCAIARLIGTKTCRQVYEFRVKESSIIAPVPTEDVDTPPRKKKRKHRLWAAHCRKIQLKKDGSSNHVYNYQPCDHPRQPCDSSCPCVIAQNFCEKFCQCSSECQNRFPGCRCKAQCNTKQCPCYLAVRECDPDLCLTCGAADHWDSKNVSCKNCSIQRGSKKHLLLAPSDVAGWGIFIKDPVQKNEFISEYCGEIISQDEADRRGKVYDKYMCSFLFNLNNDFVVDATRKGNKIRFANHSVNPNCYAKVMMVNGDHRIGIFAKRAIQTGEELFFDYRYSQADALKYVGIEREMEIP
Chain of Eed (Q921E6 whole entry): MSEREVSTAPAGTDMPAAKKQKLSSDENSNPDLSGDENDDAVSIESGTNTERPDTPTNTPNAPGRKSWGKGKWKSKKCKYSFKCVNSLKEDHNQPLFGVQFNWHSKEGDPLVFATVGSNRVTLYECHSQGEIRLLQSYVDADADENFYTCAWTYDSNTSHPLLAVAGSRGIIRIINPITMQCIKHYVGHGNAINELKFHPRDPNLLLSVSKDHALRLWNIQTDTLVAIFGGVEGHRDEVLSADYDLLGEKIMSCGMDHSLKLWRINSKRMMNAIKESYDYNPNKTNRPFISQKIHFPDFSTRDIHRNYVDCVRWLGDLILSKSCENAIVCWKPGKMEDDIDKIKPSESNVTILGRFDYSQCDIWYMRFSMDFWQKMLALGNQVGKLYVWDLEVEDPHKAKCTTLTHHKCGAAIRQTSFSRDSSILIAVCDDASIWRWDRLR

fold binding relative to the H3K27me3 peptide	Binder
~3 fold	Ezh2 (enzyme, Ezh2, mouse; also called PRC2 complex member; source: endogenous, MPC11 nuclear and chromatin extract) not shown
~3 fold	Eed (natural protein, Eed, mouse; also called PRC2 complex member; source: endogenous, MPC11 nuclear and chromatin extract) not shown
~3 fold	Suz12 (natural protein, mouse (endogenous in MPC11), UniProt Q80U70 1-741, looked up, Suz12, mouse; also called PRC2 complex member; source: endogenous, MPC11 nuclear and chromatin extract) MAPQKHGGGGGGGSGPSAGSGGGGFGGSAAAVAAAASGGKSGGGGCGGGGSYSASSSSAAAAAAAAGAAVLPVKKPKMEHVQADHELFLQAFEKPTQIYRFLRTRNLIAPIFLHRTLTYMSHRNSRTSIKRKTFKVDDMLSKVEKMKGEQESHSLSAHLQLTFTGFFHKNDKPSQNSENEQNSVTLEVLLVKVCHKKRKDVSCPIRQVPTGKKQVPLNPDLNQTKPGNFPSLAVSSNEFEPSNSHMVKSYSLLFRVTRPGRREFNGMINGETNENIDVSEELPARRKRNREDGEKTFVAQMTVFDKNRRLQLLDGEYEVAMQEMEECPISKKRATWETILDGKRLPPFETFSQGPTLQFTLRWTGETNDKSTAPVAKPLATRNSESLHQENKPGSVKPAQTIAVKETLTTELQTRKEKDNSNESRQKLRIFYQFLYNNNTRQQTEARDDLHCPWCTLNCRKLYSLLKHLKLCHSRFIFNYVYHPKGARIDVSINECYDGSYAGNPQDIHRQPGFAFSRNGPVKRTPITHILVCRPKRTKASMSEFLESEDGEVEQQRTYSSGHNRLYFHSDTCLPLRPQEMEVDSEDEKDPEWLREKTITQIEEFSDVNEGEKEVMKLWNLHVMKHGFIADNQMNHACMLFVENYGQKIIKKNLCRNFMLHLVSMHDFNLISIMSIDKAVTKLREMQQKLEKGESATPSNEEIAEEQNGTANGFSETNSKEKALETDGVSGVPKQSKKQKL
